From US20220125947A1 (published 2022)
Substitutions are numbered along the chain they refer to.

B1: VG9B47 (antibody, human IgG1, kappa, V domains shown)
VH: QVQLVQSGAEVKKPGSSVKVSCKASGGSFSNYAISWMRQAPGQGLEWMGGIIPFFGTPDYAQKFQGRVTITADKSTSTAYMELSSLRSEDTAVYYCSTGGGYGDYDYYYGINVWGQGTMVTVSS
VL: DIVMTQSPLSSPVDLGQPASISCRSSQSLVHSDGNTYLSWLQQRPGQPPRLLIYKISNRFSGVPDRFSGSGAGTDFTLKISRVEAEDVGVYYCMQAKEFPLTLGGGTKVDIKR
notes: IgG1, kappa; specificity column: g/d constant
B2: VG9B96 (antibody, human IgG1, kappa, V domains shown)
VH: EVQLVQSGAEVKKPGSSVKVSCKASGGTFSNYAISWVRLAPGQGLEWMGGIIPIFSAGTYAQRFQGRVTITADKSTSTAYMELNSLRSEDTAVYYCSSNSGTYYDYYYGMDVWGQGTMVTVSS
VL: B1 VL with P12H, D14T, S57F, F60L, E98Q, L103F, D110E
notes: as for B1
B3: VG9B77 (antibody, human IgG1, kappa, V domains shown)
VH: EVQLVESGAEVMKPGSSVKVSCKASGGTFSSYAISWVRQAPEQGLEWMGGIIPFFGTADYAQKFQGRVTITADKSTNTAYMELTSLRSEDTAVYYCATATVTTDYYYGMDVWGQGTMVTVSS
VL: B1 VL with D1E, S10F, D14T, K55E, S61T, K97R, E98Q, L103F, D110E
notes: as for B1
B4: VG9B387 (antibody, human IgG1, lambda, V domains shown)
VH: EVQLVESGAEVKKPGASVKVSCKASGFTFTGYYLQWVRQAPGQGLEWMGWINPNSGYTDYAQRFQDRVTMTRDTSINTAYMELSRLRSDDTAVYYCARLDDAFDVWGQGTMVTVSS
VL: SYELTQDPAVSVALGQTVRITCQGDSLRNYYAIWYQQKPGQAPVLVIFGKNNRPSGIPDRFSGSSSGTTASLTITGTQAEDEADYYCNSRDSSGNHWVFGGGTKLTVLG
notes: IgG1, lambda; specificity column: g/d constant
B5: VG9B379 (antibody, human IgG1, lambda, V domains shown)
VH: EVQLVQSGPEVKKPGASVKVSCKASGYTFTGDYIHWVRQVPGQGLEWMGWINPNSGGTNYAQKFQGRVTMTRDTSISTAFMELSRLRSDDTAVYYCAREGGVAPAAPDAFDIWGQGTMVTVSS
VL: B4 VL with Y2S, N29S, I33R, L45V, F48Y, T68N, T77A, W97R
notes: as for B4
B6: VG9B392 (antibody, human IgG1, lambda, V domains shown)
VH: QVQLVQSGAEVKRPGASAKVSCKTSGYTFTGYYIHWVRQAPGQGLEWMGWINPNSGYTNSAQKFQGRVSMTRDTSISTVYMELSRLRSDDTAVYYCAREDDAFDIWGQGTLVTVSS
VL: B4 VL with Y2S, N29S, I33R, F48Y, T68D, T77A, Q78L, S92N, W97V, L105V
notes: as for B4
B7: VG9B447 (antibody, human IgG1, lambda)
heavy: not shown
light: SYELTQPASVSGSPGQSITISCTGTSSDVGGYNYVSWYQQHPGKAPKLMIYEVSNRPSGVSNRFSGSKSGNTASLTISGLQAEDEADYYCSSYTSTSVVFGGGTKLTVLGQPKAAPSVTLFPPSSEELQANKATLVCLISDFYPGAVTVAWKADSSPVKAGVETTTPSKQSNNKYAASSYLSLTPEQWKSHRSYSCQVTHEGSTVEKTVAPTECS
notes: as for B4
B8: VG9B88 (antibody, human IgG1, kappa, V domains shown)
VH: EVQLVESGGGLVKPGGSLRLSCAVSGFTFSSYTMNWVRQAPGKGLEWVSSISTSSSYIDYADSVKGRFTISRDNAKKSLYLQMNSLRAEDTAVYYCARDGDMVAPIKGSFDYWGQGTLVTVSS
VL: EIVLTQSPLSLPVTPGEPASISCRSSQSLLNSDDGNTYLDWYLQKPGQSPQLLIYTLSYRASGVPDRFSGSGSGTDFTLKISRVEAEDVGVYYCMQRIEFPITFGQGTRLEIKR
notes: IgG1, kappa; also called antibody #35
B9: VG9B472 (antibody, human IgG1, kappa, V domains shown)
VH: QVQLVESGGGLVKPGGSLRLSCAASGFTFSHYDMNWVRQAPGKGLEWVSSISSSSSYIFYADSVKGRFTISRDNAKNSLLLQMNSLRAEDTAVYHCARDRGVGDTSDYYSFGLDVWGQGTTVTVSS
VL: EIVLTQSPSSLSASVGDRVTITCRASQGIATYLAWYQQKPGKVPNLLIYAASTLQSGVPSRFSGSGSGTDFTLTISSLQPEDVATYYCQKYNSAPPWTFGQGTKVEIKR
notes: IgG1, kappa; also called antibody #33
B10: VG9B417 (antibody, human IgG1, kappa)
heavy: not shown
light: DIVMTQSPSSVSASVGDRVTITCRASQGINSWLAWYQQKPGNAPKLLIYAASSLQSGVPSRFSGIGSGTDFIFTISSLQPEDFASYYCQQANSFPWTFGQGTKVEIKRTVAAPSVFIFPPSDEQLKSGTASVVCLLNNFYPREAKVQWKVDNALQSGNSQESVTEQDSKDSTYSLSSTLTLSKADYEKHKVYACEVTHQGLSSPVTKSFNRGEC
notes: IgG1, kappa; also called antibody #27
B11: VG9B421 (antibody, human IgG1, kappa)
heavy: not shown
light: B10 light with V3Q, K103R, V104L
notes: IgG1, kappa; also called antibody #34
B12: VG9B384 (antibody, human IgG1, lambda, V domains shown)
VH: QVQLQESGPALVKPTQTLTLTCTFSGFSLSSSGMCVSWIRQPPGKALEWLTLIDWFDDKYYSTSLKTRLTISKDTSKNQVVLTMTNMDPVDTATYYCARIRGTGAYYYGLDVWGQGTMVTVSS
VL: SYELMQPPSVSVSPGQTASITCSGNELGDKYASWYQQQPGQSPVLVIYQDNKRPSGIPERFSGSNSGNTATLTISGTQAMDEADYYCQAWDSSKVVFGGGTKLTVLG
notes: IgG1, lambda; also called antibody #36
B13: VG9B419 (antibody, human IgG1, kappa)
heavy: not shown
light: EIVLTQSPGTLSLSPGDRATLSCRASQSVASSYLAWYQQKPGQSPRLLIYGASSRATGIPDRFSGSGSGTDFTLTISRLEPEDFAVYYCQQYGSSPPYTFGQGTKVEIKRTVAAPSVFIFPPSDEQLKSGTASVVCLLNNFYPREAKVQWKVDNALQSGNSQESVTEQDSKDSTYSLSSTLTLSKADYEKHKVYACEVTHQGLSSPVTKSFNRGEC
notes: IgG1, kappa; also called antibody #29
B14: VG9B418 (antibody, human IgG1, kappa)
heavy: not shown
light: B13 light with V106L
notes: IgG1, kappa; also called antibody #32
B15: VG9B58 (antibody, human IgG1, kappa, V domains shown)
VH: QVQLQESGPGLVKPSETLSLTCTVSGGSIKSSYWTWIRQPPGKGLEWIGYMFYLGSTNYNPSLKSRVTMSIDTSRNQFSLKLSSVTAADTAVYYCSRERPVLDAFDIWGQGTMVTVSS
VL: DIQMTQSPSAMSASVGDRVTITCRASQDITNYLAWFQQKPGKVPKRLIYAASSLQGGVPSRFSGSGSGTEFTLTISSLQPEDFSTYYCLQHDTYPYTFGQGTKVDIKR
notes: IgG1, kappa; also called antibody #28
B16: VG9B143 (antibody, human IgG1, lambda, V domains shown)
VH: EVQLVESGGGLVQPGGSLRLSCAASGFTFSTYGMNWVRQAPGKGLEWISYISTSSYTIYYSDSVKGRFTVSRDNAKNSLYLQMNSLRDEDTAVYYCAREGDWWYFDLWGRGTTVTVSS
VL: QSALTQPASVSGSPGQSITISCTGTSSDVGGYNYVSWYQQHPGKAPKLMIYEVSNRPSGVSYRFSGSKSGNTASLTISGLQAEDEADYYCSSYTSSSTLVFGGGTKLTVLG
notes: IgG1, lambda; also called antibody #31

Target: T1, γδ T cell receptor on human γδ T cells (human)
T1 construct: whole, on cells; Target is the γδ TCR on a mixed population of human γδ T cells; also called AG000003021 (γδ T cells)
Assay: flow cytometry DRC binding 37 C, human γδ T cells
Protocol: (§1) Binding of antibodies to human γδ T cells or SKW cell lines expressing Vγ9/Vδ2, Vγ9/Vδ2 or Vγ5/Vδ2 was carried out by flow cytometry. Briefly, the cells were centrifuged at 300×g for 5 minutes and the pellet was resuspended in 34 ml fresh media (in RPMI+10% FBS). 50 μL of the cells were then plated (44K cells/well) into assay plates. Samples were incubated for one hour at 37° C. in tissue culture (TC) incubator followed by wash steps by adding 100 μl FACS staining buffer. Secondary detention antibodies (A647 conjugated anti-human IgG Fc specific antibody (2 μg/mL) along with AF488 anti mouse CD3, clone OKT3 at 1 ug/mL) were added at 50 μL/well to appropriate wells according to the plate map. After incubating for 60 minutes at 37° C. in the TC incubator, cells were again washed as described above. This is followed by resuspension in 20 μL/well running buffer containing 1:1000 dilution of Sytox blue dead cell stain and the plates were run on iQue Screener.
(§2) Gating and data analysis: Human anti-human Vγ9 antibody (VG9B2 mAb at 10 nM) was used to mark the gating of positive population. All cells were first gated for singlets on SCS-A vs. SCS-H dot plot, live/dead followed by CD3 positive population, and this subset of CD3 positive population was gated for Vγ9 positive binding using positive control mAb. Cells were also assessed for cell binding of control mAbs by RL1 (A647) Geomeans from the live cell population. Advanced metrics were used and normalization metrics were chosen to calculate fold over background wells containing secondary antibody alone (designated as ‘background’ within ForeCyt settings).

Max. Activity | Binder
1560 fold over background | B1
1020 fold over background | B2
772 fold over background | B3
1970 fold over background | B4
1460 fold over background | B5
1250 fold over background | B6
1420 fold over background | B7

Target: T2, γδ T cell receptor on human γδ T cells (human)
T2 construct: also called AG000003021 (γδ T cells)
Assay: flow cytometry, dose-response binding at 37 C on human γδ T cells
Protocol: as §1, §2

Max. Activity | Binder
2560 fold over background | B8
2620 fold over background | B9
2700 fold over background | B10
2610 fold over background | B11
2550 fold over background | B12
2690 fold over background | B13
2630 fold over background | B14
2690 fold over background | B15
2630 fold over background | B16
